Test results reported in the supplement of paper PMC10065799, “High-throughput profiling of sequence recognition by tyrosine kinases and SH2 domains using bacterial peptide display” (eLife, 2023).

Tests used:
AncSZ = experiment: phosphorylation enrichment, bacterial display (enrichment ratio); higher = better substrate or ligand; peptides without Tyr show the background
EPHB1 = EPHB1 (UniProt P54762); experiment: as above
EPHB2 = EPHB2 (UniProt P29323); experiment: as above
FGFR1 = FGFR1 (UniProt P11362); experiment: as above
FGFR3 = FGFR3 (UniProt P22607); experiment: as above
Fer (mouse) = experiment: as above
Fes = Fes (UniProt P07332); experiment: as above
Fyn = Fyn (UniProt P06241); experiment: as above
Hck = Hck (UniProt P08631); experiment: as above
Jak2 = Jak2 (UniProt O60674); experiment: as above
MERTK = MERTK (UniProt Q12866); experiment: as above
c-Abl (mouse) = experiment: as above
c-Src = experiment: as above
Grb2 SH2 = Grb2 SH2 (UniProt P62993); experiment: SH2 binding enrichment of the phosphorylated peptide, bacterial display (enrichment ratio); higher = better substrate or ligand; peptides without Tyr show the background
SHP2-C SH2 = experiment: as above
c-Src SH2 = experiment: as above
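For SH2 binding enrichment of the phosphorylated peptide, bacterial display in this document: peptide library displayed on the E. coli surface as eCPX fusions, selected cells deep-sequenced, score is each peptide's frequency after selection divided by its frequency in the input.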
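For phosphorylation enrichment, bacterial display in this document: 11-residue human phosphosite peptides and single-mutation variants displayed on the E. coli surface, counted by deep sequencing, each peptide's frequency after selection divided by its frequency in the unselected input library; frequency after pTyr selection over input frequency; kinase dosed for 20-30% of maximal phosphorylation in three min.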

Sequence of MERTK (Q12866 whole entry, looked up): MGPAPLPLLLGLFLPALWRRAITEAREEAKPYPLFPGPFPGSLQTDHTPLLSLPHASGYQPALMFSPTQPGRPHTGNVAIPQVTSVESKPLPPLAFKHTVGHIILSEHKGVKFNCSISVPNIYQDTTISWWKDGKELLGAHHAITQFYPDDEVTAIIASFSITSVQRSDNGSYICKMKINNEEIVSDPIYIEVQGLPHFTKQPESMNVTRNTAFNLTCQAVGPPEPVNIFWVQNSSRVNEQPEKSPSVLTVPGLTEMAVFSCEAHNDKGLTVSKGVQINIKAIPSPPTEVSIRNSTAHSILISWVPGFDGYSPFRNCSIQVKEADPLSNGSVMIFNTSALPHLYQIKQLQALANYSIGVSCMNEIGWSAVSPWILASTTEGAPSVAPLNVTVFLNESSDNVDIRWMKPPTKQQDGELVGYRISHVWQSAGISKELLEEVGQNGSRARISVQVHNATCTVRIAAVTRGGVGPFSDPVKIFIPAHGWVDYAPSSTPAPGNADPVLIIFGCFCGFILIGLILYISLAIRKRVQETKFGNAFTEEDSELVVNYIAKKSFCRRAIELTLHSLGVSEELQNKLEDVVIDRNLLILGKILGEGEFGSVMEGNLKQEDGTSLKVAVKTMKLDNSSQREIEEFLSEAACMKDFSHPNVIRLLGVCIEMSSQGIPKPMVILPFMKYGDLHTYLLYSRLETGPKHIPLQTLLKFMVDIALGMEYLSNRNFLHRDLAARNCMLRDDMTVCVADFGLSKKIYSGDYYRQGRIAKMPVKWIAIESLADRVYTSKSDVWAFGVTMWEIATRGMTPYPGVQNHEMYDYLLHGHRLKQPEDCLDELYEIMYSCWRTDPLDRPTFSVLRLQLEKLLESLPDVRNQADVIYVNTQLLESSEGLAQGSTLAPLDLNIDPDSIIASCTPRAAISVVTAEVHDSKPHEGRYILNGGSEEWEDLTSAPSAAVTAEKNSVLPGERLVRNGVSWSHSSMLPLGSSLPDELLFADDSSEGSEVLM
Sequence of Hck (P08631 whole entry, looked up): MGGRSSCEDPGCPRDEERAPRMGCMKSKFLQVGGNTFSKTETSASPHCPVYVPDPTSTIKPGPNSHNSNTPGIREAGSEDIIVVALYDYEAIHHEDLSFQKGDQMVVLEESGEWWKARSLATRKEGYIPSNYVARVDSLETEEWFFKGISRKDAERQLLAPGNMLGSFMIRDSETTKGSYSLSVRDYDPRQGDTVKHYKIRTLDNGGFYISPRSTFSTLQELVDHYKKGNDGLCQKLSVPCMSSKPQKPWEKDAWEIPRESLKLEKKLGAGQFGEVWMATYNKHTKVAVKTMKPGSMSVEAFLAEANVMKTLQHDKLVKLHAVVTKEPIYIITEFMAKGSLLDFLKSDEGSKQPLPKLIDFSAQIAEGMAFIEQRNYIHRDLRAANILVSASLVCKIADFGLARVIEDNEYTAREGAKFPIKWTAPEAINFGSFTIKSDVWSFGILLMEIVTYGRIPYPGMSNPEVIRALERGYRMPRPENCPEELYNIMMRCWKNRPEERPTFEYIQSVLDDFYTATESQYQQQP
Sequence of EPHB1 (P54762 whole entry, looked up): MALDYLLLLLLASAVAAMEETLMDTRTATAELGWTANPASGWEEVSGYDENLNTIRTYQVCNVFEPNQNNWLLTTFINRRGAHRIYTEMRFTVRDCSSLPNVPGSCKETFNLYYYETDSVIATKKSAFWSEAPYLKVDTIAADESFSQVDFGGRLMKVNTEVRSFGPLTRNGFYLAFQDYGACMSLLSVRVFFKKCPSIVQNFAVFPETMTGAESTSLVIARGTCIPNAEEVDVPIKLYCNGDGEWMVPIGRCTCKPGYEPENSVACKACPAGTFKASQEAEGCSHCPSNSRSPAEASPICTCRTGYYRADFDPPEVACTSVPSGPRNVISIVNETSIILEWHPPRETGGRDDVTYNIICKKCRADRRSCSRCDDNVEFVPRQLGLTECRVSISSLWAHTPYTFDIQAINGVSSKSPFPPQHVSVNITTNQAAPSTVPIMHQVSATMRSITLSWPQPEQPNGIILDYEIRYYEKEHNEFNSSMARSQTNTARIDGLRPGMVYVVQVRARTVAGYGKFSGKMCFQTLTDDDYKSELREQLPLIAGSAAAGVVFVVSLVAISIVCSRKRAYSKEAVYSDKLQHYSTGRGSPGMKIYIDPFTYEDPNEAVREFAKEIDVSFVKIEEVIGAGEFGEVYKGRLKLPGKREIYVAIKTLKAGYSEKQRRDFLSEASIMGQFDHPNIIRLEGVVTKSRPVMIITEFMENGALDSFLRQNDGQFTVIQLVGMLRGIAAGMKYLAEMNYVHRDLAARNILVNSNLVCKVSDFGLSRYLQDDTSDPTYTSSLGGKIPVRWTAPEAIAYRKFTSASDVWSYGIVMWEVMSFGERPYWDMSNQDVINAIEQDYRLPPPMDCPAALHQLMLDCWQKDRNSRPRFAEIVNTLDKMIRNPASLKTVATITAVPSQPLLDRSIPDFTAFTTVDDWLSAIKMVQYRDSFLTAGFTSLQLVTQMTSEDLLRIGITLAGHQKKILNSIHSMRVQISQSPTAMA
Sequence of Jak2 (O60674 whole entry, looked up): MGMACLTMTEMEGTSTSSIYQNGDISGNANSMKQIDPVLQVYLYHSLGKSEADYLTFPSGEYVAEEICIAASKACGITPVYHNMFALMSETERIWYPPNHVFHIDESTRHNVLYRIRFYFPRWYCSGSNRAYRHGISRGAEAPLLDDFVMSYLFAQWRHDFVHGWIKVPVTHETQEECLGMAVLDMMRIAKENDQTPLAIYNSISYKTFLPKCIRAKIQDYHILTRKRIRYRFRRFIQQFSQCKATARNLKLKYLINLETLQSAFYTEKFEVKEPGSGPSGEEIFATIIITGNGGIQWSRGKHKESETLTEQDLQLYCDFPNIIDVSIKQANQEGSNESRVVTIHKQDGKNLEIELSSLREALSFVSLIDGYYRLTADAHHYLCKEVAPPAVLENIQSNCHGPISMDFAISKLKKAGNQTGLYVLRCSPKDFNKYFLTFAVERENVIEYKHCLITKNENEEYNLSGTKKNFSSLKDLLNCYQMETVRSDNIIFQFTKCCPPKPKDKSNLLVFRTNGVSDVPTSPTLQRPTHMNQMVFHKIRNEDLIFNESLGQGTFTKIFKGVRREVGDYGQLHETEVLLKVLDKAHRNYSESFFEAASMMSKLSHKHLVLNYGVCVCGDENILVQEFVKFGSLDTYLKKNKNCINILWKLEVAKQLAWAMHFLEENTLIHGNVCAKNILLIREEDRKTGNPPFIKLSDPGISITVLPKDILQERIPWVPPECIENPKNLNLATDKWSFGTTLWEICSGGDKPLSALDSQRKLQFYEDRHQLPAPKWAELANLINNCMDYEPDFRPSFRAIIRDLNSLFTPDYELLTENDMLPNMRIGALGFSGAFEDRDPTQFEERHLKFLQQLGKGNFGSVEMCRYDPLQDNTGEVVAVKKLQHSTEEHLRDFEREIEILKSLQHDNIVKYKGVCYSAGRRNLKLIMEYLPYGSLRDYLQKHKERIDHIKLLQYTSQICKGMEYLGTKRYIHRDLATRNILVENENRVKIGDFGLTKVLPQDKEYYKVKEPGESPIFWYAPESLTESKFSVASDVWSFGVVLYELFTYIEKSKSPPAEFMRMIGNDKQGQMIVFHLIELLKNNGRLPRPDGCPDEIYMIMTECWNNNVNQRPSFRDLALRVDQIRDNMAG
Sequence of FGFR1 (P11362 whole entry, looked up): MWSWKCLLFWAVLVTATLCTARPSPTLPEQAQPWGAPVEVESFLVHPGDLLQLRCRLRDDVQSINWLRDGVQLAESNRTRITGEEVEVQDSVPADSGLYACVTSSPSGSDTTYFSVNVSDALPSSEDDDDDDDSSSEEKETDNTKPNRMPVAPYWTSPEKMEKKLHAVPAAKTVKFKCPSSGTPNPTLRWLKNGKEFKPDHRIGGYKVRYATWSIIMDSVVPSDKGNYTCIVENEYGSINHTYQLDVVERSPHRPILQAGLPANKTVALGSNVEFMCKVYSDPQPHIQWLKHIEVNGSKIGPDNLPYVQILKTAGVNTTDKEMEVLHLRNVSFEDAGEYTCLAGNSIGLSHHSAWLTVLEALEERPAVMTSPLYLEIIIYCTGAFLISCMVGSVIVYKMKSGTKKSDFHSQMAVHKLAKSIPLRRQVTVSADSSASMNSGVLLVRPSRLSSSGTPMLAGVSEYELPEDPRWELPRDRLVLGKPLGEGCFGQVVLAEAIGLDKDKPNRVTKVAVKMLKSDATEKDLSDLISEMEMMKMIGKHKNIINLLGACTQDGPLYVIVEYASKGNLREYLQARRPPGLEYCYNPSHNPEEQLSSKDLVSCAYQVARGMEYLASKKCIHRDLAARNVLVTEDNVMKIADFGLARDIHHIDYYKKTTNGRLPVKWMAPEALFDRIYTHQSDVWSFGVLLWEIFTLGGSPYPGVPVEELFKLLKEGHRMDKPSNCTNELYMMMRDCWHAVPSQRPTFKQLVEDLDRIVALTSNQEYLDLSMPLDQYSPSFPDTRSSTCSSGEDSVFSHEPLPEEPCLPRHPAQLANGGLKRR
Sequence of Fyn (P06241 whole entry, looked up): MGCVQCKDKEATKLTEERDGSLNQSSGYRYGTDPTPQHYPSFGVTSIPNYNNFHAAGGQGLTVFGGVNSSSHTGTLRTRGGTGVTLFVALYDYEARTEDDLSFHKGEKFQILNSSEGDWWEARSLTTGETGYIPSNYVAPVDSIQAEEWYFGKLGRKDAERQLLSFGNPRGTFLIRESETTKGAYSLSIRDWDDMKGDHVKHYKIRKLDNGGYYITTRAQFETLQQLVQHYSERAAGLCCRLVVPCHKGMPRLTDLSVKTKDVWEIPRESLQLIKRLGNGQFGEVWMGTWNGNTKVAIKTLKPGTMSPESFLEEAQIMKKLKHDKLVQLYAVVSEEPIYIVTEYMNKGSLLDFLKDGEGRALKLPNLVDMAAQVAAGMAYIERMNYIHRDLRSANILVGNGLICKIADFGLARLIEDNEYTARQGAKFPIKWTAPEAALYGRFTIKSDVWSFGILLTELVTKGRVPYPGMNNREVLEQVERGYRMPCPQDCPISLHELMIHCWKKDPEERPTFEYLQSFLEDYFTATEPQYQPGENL

SH2 binding enrichment (Grb2 SH2) | SH2 binding enrichment (SHP2-C SH2) | SH2 binding enrichment (c-Src SH2) | Sequence | phosphorylation enrichment (AncSZ) | phosphorylation enrichment (EPHB1) | phosphorylation enrichment (EPHB2) | phosphorylation enrichment (FGFR1) | phosphorylation enrichment (FGFR3) | phosphorylation enrichment (Fer (mouse)) | phosphorylation enrichment (Fes) | phosphorylation enrichment (Fyn) | phosphorylation enrichment (Hck) | phosphorylation enrichment (Jak2) | phosphorylation enrichment (MERTK) | phosphorylation enrichment (c-Abl (mouse)) | phosphorylation enrichment (c-Src)
0.671 | 0.55 | 0.397 | LRRREYQRQDF [PRKRIP1_Y90_YF] | 0.603 | 0.549 | 0.559 | 0.699 | 0.561 | 0.563 | 0.679 | 0.539 | 0.572 | 0.836 | 0.7 | 0.777 | 0.977
0.769 | 0.612 | 0.428 | KGSEGYLAAIF [NF1_Y2503_T2507I_YF] | 0.683 | 0.54 | 0.411 | 0.433 | 0.537 | 0.432 | 0.83 | 0.421 | 0.398 | 0.815 | 0.422 | 0.61 | 0.421
0.677 | 0.513 | 0.432 | EGELRYMHSRV [ABCD1_Y281_K276E] | 0.688 | 0.516 | 0.439 | 0.428 | 0.485 | 0.395 | 0.689 | 0.507 | 0.34 | 0.86 | 0.35 | 0.519 | 0.373
0.778 | 0.598 | 0.665 | INSLKYAYNIS [EIF2B5_Y583] | 0.476 | 0.403 | 0.368 | 0.425 | 0.474 | 0.392 | 0.762 | 0.414 | 0.401 | 0.569 | 0.398 | 0.421 | 0.412
1.01 | 0.688 | 0.505 | GFEEAYSVSKK [PAFAH1B1_Y28_F31S_YF] | 0.697 | 0.355 | 0.353 | 0.374 | 0.492 | 0.39 | 0.764 | 0.403 | 0.487 | 0.853 | 0.377 | 0.464 | 0.65
0.781 | 0.671 | 0.486 | VKPHRYRPGTV [H3-5_Y41] | 0.513 | 0.378 | 0.337 | 0.407 | 0.346 | 0.362 | 0.573 | 0.386 | 0.328 | 0.494 | 0.456 | 0.613 | 0.434
0.921 | 0.748 | 0.614 | EDSEYYKAFEE [CASQ2_Y179] | 1.37 | 0.526 | 0.489 | 0.51 | 0.742 | 0.487 | 1.34 | 0.425 | 0.508 | 1.11 | 0.372 | 0.793 | 0.547
0.706 | 0.491 | 0.559 | KLIMECLPFGS [JAK2_Y931_Y931C_YF] | 1.24 | 0.969 | 0.588 | 0.576 | 0.858 | 0.622 | 1.39 | 0.619 | 0.652 | 1.57 | 0.521 | 0.96 | 0.611
0.845 | 0.491 | 0.472 | LEVPLYKNGVK [CPS1_Y1069_A1065E] | 1.28 | 0.715 | 0.43 | 0.944 | 1.11 | 0.66 | 0.997 | 0.759 | 0.655 | 0.643 | 0.625 | 0.693 | 0.321
0.996 | 0.631 | 0.851 | PKAWNYELPAT [PROM1_Y34] | 1.23 | 0.761 | 0.997 | 0.582 | 0.574 | 0.72 | 0.972 | 0.822 | 0.597 | 0.894 | 0.59 | 0.735 | 0.414
0.749 | 0.675 | 0.66 | IMWDSYTTNKV [GNB3_Y85_V81M] | 0.945 | 0.544 | 0.437 | 0.451 | 0.64 | 0.392 | 0.885 | 0.33 | 0.421 | 0.91 | 0.305 | 0.553 | 0.369
0.637 | 0.45 | 0.343 | RRIHSYRGQLW [VHL_Y112_H115Q] | 1.25 | 0.491 | 0.438 | 0.536 | 0.596 | 0.617 | 0.813 | 0.883 | 0.664 | 0.925 | 0.535 | 0.906 | 0.776
1.15 | 0.598 | 0.506 | TRHDEYLEVTK [MAP1A_Y2217] | 0.882 | 0.464 | 0.547 | 0.589 | 1.11 | 0.421 | 1.03 | 0.565 | 0.399 | 0.726 | 0.343 | 0.612 | 0.401
0.911 | 0.846 | 3.27 | HKLSFYEFDFE [BTK_Y40_YF] | 1.73 | 0.752 | 0.786 | 1.01 | 1.36 | 0.919 | 1.73 | 1.66 | 0.989 | 2.92 | 1.75 | 1.51 | 1.24
0.935 | 1.02 | 0.597 | LKGQVYILGLE [ASS1_Y359_R363L] | 1.37 | 0.971 | 0.658 | 0.467 | 0.961 | 0.664 | 1.99 | 0.49 | 0.985 | 1.23 | 0.518 | 0.759 | 0.633
0.674 | 0.612 | 1.78 | GVFSRHFTTFD [CLCA1_Y661_Y661H_YF] | 1.31 | 0.953 | 1.1 | 0.644 | 0.814 | 0.946 | 1.05 | 0.48 | 1.03 | 0.483 | 0.166 | 0.346 | 0.184
0.643 | 0.39 | 0.364 | QTEAEYRFIFM [PTPN11_Y511_Q510E_YF] | 1.29 | 0.59 | 0.762 | 1.46 | 1.42 | 0.847 | 1.32 | 0.511 | 0.626 | 1.24 | 0.618 | 0.912 | 0.525
